Source: the supplement of paper PMC9170038

System: MS2 coat protein
Experiment: apparent KD of MS2 coat protein; designed switch direction (-1 OFF switch, 1 ON switch): 1; higher = weaker reporter binding
Summary of the method: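 SNAP-549-labelled MS2 coat protein was titrated, doubling from 0.7 or 1.5 nM to 3 µM, over designed RNA switches transcribed on Illumina chips by stalled E. coli RNA polymerase. Runs were done without input, with 200 uM small-molecule ligand, or with an oligonucleotide input. Apparent KD is the per-design median over clusters of curve-fitted normalised fluorescence.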

[1] = input ligand: microRNA oligo, concentration not stated
[2] = Eterna round: R95, input ligand: FMN 200 uM
[3] = Eterna round: R95, input ligand: microRNA oligo, concentration not stated
[4] = Eterna round: R95, input ligand: none

| Sequence | apparent KD of MS2 coat protein (input ligand: FMN 200 uM) [nM] | apparent KD of MS2 coat protein [1] [nM] | apparent KD of MS2 coat protein (input ligand: none) [nM] | apparent KD of MS2 coat protein [2] [nM] | apparent KD of MS2 coat protein [3] [nM] | apparent KD of MS2 coat protein [4] [nM] |
| --- | --- | --- | --- | --- | --- | --- |
| UGUUUGUUGUGAGGAUAUACGUACACCCUACAUGAGGAUCACCCAUGUUGUUCCCUUGAUUGUUGGUAGAAGGCACUUGGUUAU [JR_SSNG2_Sub049] (Eterna round: R96, puzzle: Same State NG 2) | 216 | 122 | 118 |  |  |  |
| UUGCUCGUGUGAGGAUAUGCCGCCGUUUCGGCUGCAGAAGGUACUCUGUUACAUGAGGAUCACCCAUGUCUCUGUUGUUUCGUG [salish99_SSNG1_r04_939] (Eterna round: R96, puzzle: Same State NG 1) |  | 34.7 |  |  |  |  |
| UGCCUGUCCGAAGGAUAUCUCAGCGAUCUUUUGGGAGAAGGUCGGAUGCAACAUGAGGAUCACCCAUGUGUAUAUAUCGCUGAC [Eternabot solution 48] (Eterna round: R96, puzzle: Same State NG 1) | 17.7 | 13.9 | 20.1 |  |  |  |
| UAGGGACAUGAGGAUCACCCAUGUGCCUCAUAUGGAGAAACUCAGGAUAUGCUGAGGAUCACCCGGCAGAAGGGAGAUCCGAGG (Eterna round: R96, puzzle: Same State NG 3) | 86.6 | 33 | 53.4 |  |  |  |
| AUAAGUUCGAUGCUCGUCUCUCCGUACAAACAUGAGGAUCACCCAUGUGACUGGGCAAUAGCCCAAUCAGUAUGGCC [Beongetiqu] (puzzle: Sensor for hsa-mir-208a) |  |  |  | 34.8 | 22.8 | 34.4 |
| UUUGAAUUGCAAGGAUAUCUUAUUUAGAUUUUAAGAGAAGGUGCUUUAUAGUUACAUGAGGAUCACCCAUGUAUUUCUUUUUAU [JR_SSNG1_Sub062] (Eterna round: R96, puzzle: Same State NG 1) |  | 18.5 |  |  |  |  |
| AUAAAACAUGAGGAUCACCCAUGUCAACAAAGUCGAGGAUAUGGGCAAAGAAAAGAAUAACCAGAAGGCGAAUAAU [salish99_ss1_r3_055] (puzzle: Same State 1) |  |  |  | 51.5 | 315 | 316 |
| AUUAAUAAUGCAGGAUAUGAUUAACAUGAGGAUCACCCAUGUGGUGUUGUGAGUAAGGAGAGUGAUCAGAAGGGCAUUUUUUUU [JMF's solution 27] (Eterna round: R96, puzzle: Same State NG 2) | 552 | 374 | 385 |  |  |  |
| UGGUACAUGGGAGGAUAUGGAGUUGAGACAUGAGGAUCACCCAUGUUAUAAAAGCCGAGAGGCAACUAGAAGGCCCAUGUACCU [JL SSNG1 3.92] (Eterna round: R96, puzzle: Same State NG 2) | 10.2 | 49.9 | 62.9 |  |  |  |
| UUAUAACAUGAGGAUCACCCAUGUCAACAAAGUCGAGGAUAUGGGCAAUUAUUAUUAGAACCAGAAGGCGAAAAUU [Mat - Same State 1 - Mod of UCT - D29] (puzzle: Same State 1) |  |  |  | 52.1 | 227 | 587 |
| UCAAGAUCGCGAGGAUAUCGCGAGGAUCACCCGUGAGAAGGCGCAGAGCCGAGGAUCACCCGGCUGAUCCUGAGGAGGAGGUAA (Eterna round: R96, puzzle: Same State NG 1) | 139 | 234 | 420 |  |  |  |
| UGAAUAAUGUUAGGAUAUACAUGAGGAAUCCUCGUAGAAGGAACAUGACAUGAGGAUCACCCAUGUAGCGCUCCGUAGAGCGCA [Mat - Same State NG 1 - JL mod - D49] (Eterna round: R96, puzzle: Same State NG 1) | 111 | 39.5 | 250 |  |  |  |
| GCUCGACGUUCGGCCUACAUGAGGAUCACCCAUGUGACUGGGCAGGAUAUCUAAAUGCAGAAUGUAGAGAAGGGCCCGUCGAGC [SameState NG3 #51] (Eterna round: R96, puzzle: Same State NG 3) | 168 | 43.4 | 190 |  |  |  |
